# The DeepSol protein solubility set
# Experiment: soluble on expression in E. coli; label from the status in PepcDB or PDB records
row,Sequence,soluble on expression in E. coli
1,MGSDKIHHHHHHMNIEDTLLKQDVWRFIDNTTINPAFDAIQSFATDDTLCRSVGARMAPSTVRGWVHEKTVSLGIQDSKLPDIDKGIAFLQEQGYRVVVRNSGGLAVVLDSGVLNLSMVLPDAERGIAIERGYETMFTLIKDMFVDCNEVIEAKEIEDSYCPGSYDLSIQGEKFAGISQRRMAKGVAVQIYLAIDGDQTTRSELIRDFYTISGKAKQTKYTFPDVNPNVMGSLSDLMKNDISLNGTLVRLFNSLRHYAGELVSGTLTSEELDLFPAYYERLIARNDKVLT,not soluble
2,MSRKTLVDTPITPQSSIGHILRAQFALQNQLPEDKPKTIGFNEAENMKLYELYSGRREEYHSTRPSGQRNEEVPMDTLAREWATEITSMGFAERTPAQIKQRIRDMRKFSRKHAHKLGITNMNAGQELERYAEFSWAEPKRRSRGPVPDWMSGLAEIMMSEQDTKADDADSASDIMEATYGPKAKRLKLQRTEMQLHQLQLHLDMKQRELKQEREKEEGNGNDEQEEREKRDVSPETLLIEKKLRLADAKLHTEHLKQQVSIP,not soluble
3,MGSDKIHHHHHHMVLGGPMSLNRYFTGGLLCLLGCNPANAQTATIVLSATLLPACEAGSVGSGGAITFGTLDFGQYASLNNAISATSQQGAGSIRVRCVSGQTYAITLDGGLYGSVATRRMANIANTALTLTYNLYSDRPGGIVWDNTTGVAATGNGNDQWYPIYGLVPAQTTPVAGTYRDTVNVTISW,not soluble
4,MGSDKIHHHHHHMFQNKKHRIALISIDGDPAVEIGQEEAGGQNVYVRQVGYALAQQGWQVDMFTRRSNSEQSAIAQHGPNCRTIRLKAGPAEFIGRDNLFDHLPEFIEEFQKFQQRQGFHYSLIHTNYWLSSWVGMELKKQQSLIQVHTYHSLGAVKYRSIGDVPVIAAQRLAVEKACLETIDCVVATSPQEQKHMRVLVSSKGNIEMIPCGTDTDKFGGIQRTAAREKLGIAPDAKIVLYVGRFDRRKGIETLVRAVAKSSLRGEANLQLVIGGGSRPGQSDAIERDRIASIVTELGLENCTTFAGRLDETVLPFYYAAADVCVVPSHYEPFGLVAIEAMASQTPVVASDVGGLQFTVVPEVTGLLAPPKDEVAFAAAIDRILINPTWRDQLGEAARQRTEIAFSWYSVGFRLTQLYTRLLAQTASNTRPRIAA,not soluble
5,MSNTKNTSDSQESQQSSRKPQRSQATQTSQASQKSQSSQEPRRPKPMEVLREARAQLAELTGMTAESVSSFEQTEEGWVLEVEVLELERVPDTMSLMASYQVELDAEGQLTGYRRARRYERGRADSRGGRKLAAALEHHHHHH,soluble
6,MSLRELQNALYFSEVVFGPNLEKIVGEKRLNFWLKLIGEDPENLKEFLSRKGNSFEEQTLPEKEAIVPNRLGEEALEKVREELEFLNTYSTKHVRRVKELGVQIPFEGILLPFISMYIEKFQQQQLRKKIGPIHEEIWTQIVQDITSKLNAILHRTLILELNVARVTSQLKGDTPEERFAYYSKTYLGKREVTHRLYSEYPVVLRLLFTTISHHISFITEILERVANDREAIETEFSPCSPIGTLASLHLNSGDAHHKQRTVTILEFSSSLKLVYKPRSLKVDGVFNGLLAFLNDRTGEVIKDQYCPKVLQRDGYGYVEFVTHQSCQSLEEVSDFYERLGSLMSLSYVLNSSDFHFENIIAHGPYPVLIDLETIIHNTADSSEETSTAMDRAFRMLNDSVLSTGMLPSSIYYRDQPNMKGLNVGGVSKSEGQKTPFKVNQIANRNTDEMRIEKDHVTLSSQKNLPIFQSAAMESVHFLDQIQKGFTSMYQWIEKNKQEFKEQVRKFEGVPVRAVLRSTTRYTELLKSSYHPDLLRSALDREVLLNRLTVDSVMTPYLKEIIPLEVEDLLNGDVPYFYTLPEERALYQEASAINSTFFTTSIFHKIDQKIDKLGIEDHTQQMKILHMSMLASNANHYADVADLEGHHHHHH,soluble
7,SLSTRGINFLHQWIANNVPETTKPDAVSISEITHKLFSDAKALGIKREDIDEEVESLTAHCSIGLCISTLA,not soluble
8,MIPHTDIVHNLAEKVVVVRLEKPVTFHNMIAPGKEVEVSLLFFIINNSSSSQTNILAQLMDFFTGNGHLEDLSKISEPEALYAYIAEATA,not soluble
9,QLDGLDVYVAGKADVNFLFDRYISTKTELRSTTYSNYLYTWNHFIRDTFGKKKVRDVKYSDVLFFYTDLINNQGLQINTLETINTVLRPTFQLAVRDDIIRKNPVDGAYCEVKKRNGGARKTRRALTVDQQRKFMEYVAKNPFFYHWYPFFVFLLGTGCRIGEAIGIRWDDIDLENRIIDINHSLTYYQRADDSYKCEFRVSLPKTEAGNRRIPMMQQVYDVLQEEYERQKQEGFCVENVDGMTNFVFTNRFGMPHNPAAVNRAIKR,not soluble
10,MGSDKIHHHHHHVSEAIVFTSGKGGVGKTTVISNIGVELSQLDKKVIMLDTDMGLRNLDLVMGIEDKVNYNILDILNRSCRIRQAIIRNKKYPNLYVIPAAPSMDTLCSYEARFKILIEELKASFDYCLIDSPAGIDSGFWFSVSPADRAIVVTTPHVSAIHDARRCISLLDSAHLDDISVIVNAYDKHMVRRHQMISDNDITALLSTRIIGTIPYDKSVIICQNRGIPVREAKSRLSPVFARISGQIIHSSDDMRGAAV,not soluble
11,MGHHHHHHSHMAAPLGGMFSGQPPGPPQAPPGLPGQASLLQAAPGAPRPSSSTLVDELESSFEACFASLVSQDYVNGTDQEEIRTGVDQCIQKFLDIARQTECFFLQKRLQLSVQKPEQVIKEDVSELRNELQRKDALVQKHLTKLRHWQQVLEDINVQHKKPADIPQGSLAYLGAGICQHPCTSEANVSKGQRQLAYEWADA,not soluble
12,MIIGYFDGLCEPKNPGGIATFGFVIYLDNRKIEGYGLAEKPFSINSTNNVAEYSGLICLMETMLRLGISSPIIKGDSQLVIKQMNGEYKVKAKRIIPLYEKAIELKKKLNATLIWVPREENKEADRLSRVAYELVRRGKLRDIGCIILT,soluble
13,MGSDKIHHHHHHMPSPLLRRENKIKILRYILKNGKTTRNQLASNLNLAHSTLSYIIDELLDEGFLVFEEIKKKRGRPYQILSVNPEKFTAIGVKVGREEVRGVLFDARMNPLKEHRVQILSGMRNNDGYTRALRETIEQLRSENLLGVGICSSGIVKEGRVVVSHVMNVKDWDPRKVLKDLERILVMNDSDALCREISQRVNTDFLLVSYGVGIGASLWKDKKIHHIEMGHMLAASEGKCYCGQTGCLEYHSSEYAVLKSYLGKEIDFEDFITSEEEKYRQTIEELREKAREDFDSVKVHYEKAFKTFSVVLGNVIMGSGVSRVFFAGEGVVSEEMVKILEELVKVRFNRDFVGEVQFQVADANWMLGAARAVVDKYLPYIVK,not soluble
14,MVRYWIYLLSDDVASHYRHRAEKIVELLREHQYAKAPLKAICRKQVEFITERLSFSRLELGLKQYFAGRVGKNLERNMFVLQNDAGEEALLVVQKRRLLLVADSAPLASDIGRALARLSPTFLAVDADFVDYYWLSAPRQGRKFA,not soluble
15,MFVMIIQGQVLGGYPRSRYVRRALRRLEQGEISAVELMGVLNQASSAVIGAQVSQGFPYVVDGMLDWHDIFRPFAEAWRNVTPTGLLRYFDNNFFYRIPLFTGEPEPTDPVLAPRVLSYSQVAEPAKLKVVVPGPVTFTLMSRNESGISDEELAEAIANLLADEVEKAVKAGAGFVQVDEPILSEPKATRDHALLAAELAGVIASRSGSAETMLSVYFYPPKPEVYEALLEARVDYLMVDLVAAGSKGLEVITGKGAGEGLALGVIDARSIYSESLEKVEAPVRRIVESVKPEKIILTTSTWLDLIPYRYALRKTALLGRYTYALAEKLGAQIAVAGGEMAGDPLEHHHHHH,not soluble
16,MSLYSENDISNSIKNGILYLEDPVNHEWYPHYFVLTSSKIYYSEETSSDQGNEDEEEPKEVSSSTELHSNEKWFHGKLGAGRDGRHIAERLLTEYCIETGAPDGSFLVRESETFVGDYTLSFWRNGKVQHCRIHSRQDAGTPKFFLTDNLVFDSLYDLITHYQQVPLRCNEFEMRLSEPVPQTNAHESKEWYHASLTRAQAEHMLMRVPRDGAFLVRKRNEPNSYAISFRAEGKIKHCRVQQEGQTVMLGNSEFDSLVDLISYYEKHPLYRKMKLRYPINEEALEKIGTAEPDYGALYEGRNPGFYVEANPMPTFKCAVKALFDYKAQREDELTFIKSAIIQNVEKQEGGWWRGDYGGKKQLWFPSNYVEEMVNEGHHHHHH,soluble
17,MAHHHHHHMDPSAFGMMAGRGMGRQTEVRDARDTAETIQISSIALLKMLIHGRAGVPLEVMGLMIGEEIDDYTIRVADVFSMPQTATGQSVEAVDPEYQVHMLDKLKLVGRHENVVGWYHSHPGFGCWLSSEDVMTAAGYENLTPRSVSVVVDPIQSVRGKVVIDAFRTIPQEIMAMRAMGEYVEPRQVTSNIGFLSKPSAVALSHNLNRQYYNLPVTFRKKNHELRLLLNVYRKGWQEGFKLEKAKVYQRETRTSIRELISLSKQAEKYITQGRDEDDLGNVGQINAMSHLQMEAENVIHRNLNQSIGAMINAVVF,not soluble
18,MKTFIWNSNYETGVAKVDDQHQCLVEIINEYSHLLANNTTTETDIELTLNKLIDYTKFHFKDEEQLMYSVGLDTRHITHHEKLHRDILDEISTLLSDQVTDKLSIARYILDLIIHWLVYHILGTDMNMAKLEHHHHHH,not soluble
19,MGSDKIHHHHHHMRNYQIPNLFNLGDLETKKVLKAANQAHQALGELKGVVQTVPNQNILLGTLPLQEAKESSEIENIITTQDDLYQSNVATQQFTTIAAKEVHHYAQAVSFGFSEVRKTELITLNLIKQIQAKLEGNNAGFRKQIGTGLVNQRTGQVVYMPPQQPEMIEHYMSVLERFINDSEQIDYDPLVKMAIVHHQFESIHPFYDGNGRTGRIINILYLIQQNLLDTPILYLSRYINRNKDQYYYLLQFVRDHNDWEEWLIFMLNGIAETAKQTVDLINQIKKLMQEHKLLIRNQLPNIYSHELINNLYKYPYTKIDFIAEDCQVHRNTAGKRLEQLVDLGILKKVKIGKENFYINMELYYLLTK,not soluble
20,MGSDKIHHHHHHMNFTMNFPGLKDTFITKVEEVGEIVRLYVEMERKVHRCPKCQKRTKKVHDYRIQKIKHLKWFERQTQIFYKRRRYVCACGKRFAENNSFVERYQRTSIEWNQAVAIRAIKGKTFKETAENYGSSATTIVRRFDQISSSEIRPVEELPAIIAIDEYKGDTKEGKYQLIIADAVTKEPLDILPNRYKRTIKDYLRRHGSKVQMVIMDMSPSFKAAVQEALGRPVIIADRFHFCRYIYWALDGVRRRVQKDFHAYDRKKCKRMKHVFHKENSRLTEEERWYLDRYLKMSTELQKAYELKEAYQDWFKRSKEIGATQIERVKKELKAIYKLVKNSGIPEMCRAIGTFENWQTEILNSFAYGYSNGFLEGINNSTKVLKRNAFGFRSYERFRAKILLTHKYKRIGVHIG,not soluble
21,MHGVEFAPLERQHGSQVLALLRGTLLVPLPRLHQRLEEAYERDARLGLAQVALCRLAGNAEKVVGVLLARVATRRTCCAQVYIDAVAVDAVFQGQGIGSRLLLRVLTPCLPDGLEVREVFLHTPLQATELVAFYRSCGFESDDEVIDNYYPRRWMPQAQALVLRWRPPTAAQHQHEERKGPQDADVS,not soluble
22,INYKQLQLQERTNIRKCQELLEQLNGKINLTYRADFKIPMEMTEKMQKSYTAFAIQEMLQNVFLVFRNNFSSTGWNETIVVRLLDELHQQTVFLKTVLEEKQEERLTWEMSSTALHLKSYYWRVQRYLKLMKYNSYAWMVVRAEIFRNFLIIRRLTRNFQN,soluble
23,MKIVKDFSPKEYSQKLVNWLSDSCMNYPAEGFVIGLSGGIDSAVAASLAVKTGLPTTALILPSDNNQHQDMQDALELIEMLNIEHYTISIQPAYEAFLASTQSFTNLQNNRQLVIKGNAQARLRMMYLYAYAQQYNRIVIGTDNACEWYMGYFTKFGDGAADILPLVNLKKSQVFELGKYLDVPKNILDKAPSAGLWQGQTDEDEMGVTYQEIDDFLDGKQVSAKALERINFWHNRSHHKRKLALTPNF,soluble
